Results published in IntAct's records for PubMed 18832153.

B1: Structural maintenance of chromosomes protein 1A (Homo sapiens), Q14683 (parent)
chain: MGFLKLIEIENFKSYKGRQIIGPFQRFTAIIGPNGSGKSNLMDAISFVLGEKTSNLRVKTLRDLIHGAPVGKPAANRAFVSMVYSEEGAEDRTFARVIVGGSSEYKINNKVVQLHEYSEELEKLGILIKARNFLVFQGAVESIAMKNPKERTALFEEISRSGELAQEYDKRKKEMVKAEEDTQFNYHRKKNIAAERKEAKQEKEEADRYQRLKDEVVRAQVQLQLFKLYHNEVEIEKLNKELASKNKEIEKDKKRMDKVEDELKEKKKELGKMMREQQQIEKEIKEKDSELNQKRPQYIKAKENTSHKIKKLEAAKKSLQNAQKHYKKRKGDMDELEKEMLSVEKARQEFEERMEEESQSQGRDLTLEENQVKKYHRLKEEASKRAATLAQELEKFNRDQKADQDRLDLEERKKVETEAKIKQKLREIEENQKRIEKLEEYITTSKQSLEEQKKLEGELTEEVEMAKRRIDEINKELNQVMEQLGDARIDRQESSRQQRKAEIMESIKRLYPGSVYGRLIDLCQPTQKKYQIAVTKVLGKNMDAIIVDSEKTGRDCIQYIKEQRGEPETFLPLDYLEVKPTDEKLRELKGAKLVIDVIRYEPPHIKKALQYACGNALVCDNVEDARRIAFGGHQRHKTVALDGTLFQKSGVISGGASDLKAKARRWDEKAVDKLKEKKERLTEELKEQMKAKRKEAELRQVQSQAHGLQMRLKYSQSDLEQTKTRHLALNLQEKSKLESELANFGPRINDIKRIIQSREREMKDLKEKMNQVEDEVFEEFCREIGVRNIREFEEEKVKRQNEIAKKRLEFENQKTRLGIQLDFEKNQLKEDQDKVHMWEQTVKKDENEIEKLKKEEQRHMKIIDETMAQLQDLKNQHLAKKSEVNDKNHEMEEIRKKLGGANKEMTHLQKEVTAIETKLEQKRSDRHNLLQACKMQDIKLPLSKGTMDDISQEEGSSQGEDSVSGSQRISSIYAREALIEIDYGDLCEDLKDAQAEEEIKQEMNTLQQKLNEQQSVLQRIAAPNMKAMEKLESVRDKFQETSDEFEAARKRAKKAKQAFEQIKKERFDRFNACFESVATNIDEIYKALSRNSSAQAFLGPENPEEPYLDGINYNCVAPGKRFRPMDNLSGGEKTVAALALLFAIHSYKPAPFFVLDEIDAALDNTNIGKVANYIKEQSTCNFQAIVISLKEEFYTKAESLIGVYPEQGDCVISKVLTFDLTKYPDANPNPNEQ
partner: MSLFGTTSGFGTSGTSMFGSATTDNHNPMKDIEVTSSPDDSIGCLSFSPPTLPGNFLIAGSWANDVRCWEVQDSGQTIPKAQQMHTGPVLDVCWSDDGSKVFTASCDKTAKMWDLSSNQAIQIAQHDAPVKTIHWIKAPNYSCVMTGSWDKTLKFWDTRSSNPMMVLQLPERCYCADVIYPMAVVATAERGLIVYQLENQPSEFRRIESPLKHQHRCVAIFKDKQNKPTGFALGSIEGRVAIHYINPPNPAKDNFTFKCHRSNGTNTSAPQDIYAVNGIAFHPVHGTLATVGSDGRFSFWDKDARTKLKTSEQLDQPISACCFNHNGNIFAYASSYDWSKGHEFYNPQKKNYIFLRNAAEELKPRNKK

Variants of: B1
Conditions: with rae1l_human RAE1, P78406

| effect of a mutation on the interaction | Variant |
| --- | --- |
| decreasing interaction | S966A |
| decreasing interaction | S957A |
